In US20240018502A1:
Where a chain is given by its changes, count along the chain named. Numbers in names are those of the source.

B1: MTSP-1 protease domain I41S/ins97aV/C122S/Q192D (enzyme)
chain: VVGGTDADEGEWPWQVSLHALGQGHSCGASLISPNWLVSAAHCYIDDRGFRYSDPTQWTAFLGLHDQSQRSAPGVQERRLKRIISHPFFNDFVTFDYDIALLELEKPAEYSSMVRPISLPDASHVFPAGKAIWVTGWGHTQYGGTGALILQKGEIRVINQTTCENLLPQQITPRMMCVGFLSGGVDSCDGDSGGPLSSVEADGRIFQAGVVSWGDGCAQRNKPGVYTRLPLFRDWIKENTGV
B2: MTSP-1 protease domain Q38Y/I41A/D96I/ins97aQ/C122S (enzyme)
chain: B1 chain with Q23Y, S26A, D91I, V93Q, D189Q
B3: MTSP-1 Q38H/I41S/D60bT/F60eS/D96K/F97G/ins97aV/T98P/F99L/C122S/G151H/Q175L/Q192D (enzyme)
chain: B1 chain with Q23H, D47T, F50S, D91K, F92G, T94P, F95L, G146H, Q170L
B4: MTSP-1 Q38H/I41S/D60bT/Y60gW/D96K/F97G/ins97aV/T98P/F99L/C122S/G151H/Q175L/Q192D (enzyme)
chain: B1 chain with Q23H, D47T, Y52W, D91K, F92G, T94P, F95L, G146H, Q170L
B5: MTSP-1 protease domain I41T/F97R/ins97aV/T98L/C122S/Q192S (enzyme)
chain: B1 chain with S26T, F92R, T94L, D189S
B6: MTSP-1 protease domain Q38H/I41A/D96A/ins97aA/C122S/G151D/Q192T (enzyme)
chain: B1 chain with Q23H, S26A, D91A, V93A, G146D, D189T
B7: MTSP-1 protease domain Q38W/I41S/D96R/ins97aA/C122S/G151N/Q192A (enzyme)
chain: B1 chain with Q23W, D91R, V93A, G146N, D189A
B8: MTSP-1 protease domain Q38H/I41S/D96Q/ins97aT/C122S/G151N/Q192A (enzyme)
chain: B1 chain with Q23H, D91Q, V93T, G146N, D189A
B9: MTSP-1 protease domain L33M/Q38F/I41S/D96A/ins97aW/C122S/G151N/Q192S (enzyme)
chain: B1 chain with L18M, Q23F, D91A, V93W, G146N, D189S
B10: MTSP-1 protease domain Q38H/I41T/D96K/ins97aL/C122S/G151N/Q192A (enzyme)
chain: B1 chain with Q23H, S26T, D91K, V93L, G146N, D189A
B11: MTSP-1 protease domain Q38H/I41S/D96V/ins97aA/C122S/G151N/Q192A (enzyme)
chain: B1 chain with Q23H, D91V, V93A, G146N, D189A
B12: MTSP-1 protease domain I41S/F97G/ins97aA/T98L/C122S/Q192A (enzyme)
chain: B1 chain with F92G, V93A, T94L, D189A
B13: MTSP-1 protease domain Q38F/I41V/D96Q/ins97aT/C122S/G151D (enzyme)
chain: B1 chain with Q23F, S26V, D91Q, V93T, G146D, D189Q
B14: MTSP-1 protease domain Q38W/I41V/D96R/ins97aA/C122S/G151N (enzyme)
chain: B1 chain with Q23W, S26V, D91R, V93A, G146N, D189Q
B15: MTSP-1 protease domain I41A/ins97aY/F99L/C122S/Q175R/Q192H (enzyme)
chain: B1 chain with S26A, V93Y, F95L, Q170R, D189H
B16: MTSP-1 protease domain I41A/Y60gW/ins97aE/F99L/C122S/Q175M/Q192T (enzyme)
chain: B1 chain with S26A, Y52W, V93E, F95L, Q170M, D189T
B17: MTSP-1 protease domain Q38H/I41T/D96M/ins97aA/C122S/G151D (enzyme)
chain: B1 chain with Q23H, S26T, D91M, V93A, G146D, D189Q
B18: MTSP-1 protease domain Q38H/I41S/D96S/ins97aK/C122S/G151N/Q192A (enzyme)
chain: B1 chain with Q23H, D91S, V93K, G146N, D189A
B19: MTSP-1 protease domain Q38H/I41S/D96Q/ins97aA/C122S/Q192T (enzyme)
chain: B1 chain with Q23H, D91Q, V93A, D189T
B20: MTSP-1 protease domain I41T/ins97aA/F99Y/C122S/Q175L/Q192A (enzyme)
chain: B1 chain with S26T, V93A, F95Y, Q170L, D189A
B21: MTSP-1 protease domain I41S/Y60gW/ins97aN/F99L/C122S/Q175R/Q192T (enzyme)
chain: B1 chain with Y52W, V93N, F95L, Q170R, D189T
B22: MTSP-1 protease domain I41S/F97A/ins97aV/T98L/C122S/Q192A (enzyme)
chain: B1 chain with F92A, T94L, D189A
B23: MTSP-1 protease domain Q38Y/I41T/D96M/ins97aS/C122S/G151N (enzyme)
chain: B1 chain with Q23Y, S26T, D91M, V93S, G146N, D189Q
B24: MTSP-1 Q38H/I41S/F60eS/Y60gW/D96K/F97G/ins97aV/T98P/F99L/C122S/G151H/Q175L/Q192D (enzyme)
chain: B1 chain with Q23H, F50S, Y52W, D91K, F92G, T94P, F95L, G146H, Q170L
B25: MTSP-1 protease domain Q38H/I41A/D96R/ins97aQ/C122S (enzyme)
chain: B1 chain with Q23H, S26A, D91R, V93Q, D189Q
B26: MTSP-1 protease domain Q38H/I41S/D96K/ins97aT/C122S/G151K/Q192A (enzyme)
chain: B1 chain with Q23H, D91K, V93T, G146K, D189A
B27: MTSP-1 protease domain I41S/ins97aT/F99L/C122S/Q175R/Q192H (enzyme)
chain: B1 chain with V93T, F95L, Q170R, D189H
B28: MTSP-1 protease domain Q38H/I41S/D96K/ins97aS/C122S/G151P/Q192S (enzyme)
chain: B1 chain with Q23H, D91K, V93S, G146P, D189S
B29: MTSP-1 protease domain I41S/F97L/F99L/C122S/Q192S (enzyme)
chain: VVGGTDADEGEWPWQVSLHALGQGHSCGASLISPNWLVSAAHCYIDDRGFRYSDPTQWTAFLGLHDQSQRSAPGVQERRLKRIISHPFFNDLTLDYDIALLELEKPAEYSSMVRPISLPDASHVFPAGKAIWVTGWGHTQYGGTGALILQKGEIRVINQTTCENLLPQQITPRMMCVGFLSGGVDSCSGDSGGPLSSVEADGRIFQAGVVSWGDGCAQRNKPGVYTRLPLFRDWIKENTGV
B30: MTSP-1 protease domain I41A/Y60gW/D96F/F97G/F99M/C122S/Q175W/Q192A (enzyme)
chain: B29 chain with S26A, Y52W, D91F, L92G, L94M, Q169W, S188A
B31: MTSP-1 protease domain I41S/F97V/T98N/F99L/C122S/Q192S (enzyme)
chain: B29 chain with L92V, T93N
B32: MTSP-1 protease domain I41S/F97D/F99L/C122S/Q192V (enzyme)
chain: B29 chain with L92D, S188V
B33: MTSP-1 protease domain I41G/Y60gW/F99L/C122S/Q175R/Q192S (enzyme)
chain: B29 chain with S26G, Y52W, L92F, Q169R
B34: MTSP-1 protease domain I41E/F97L/F99L/C122S/Q192A (enzyme)
chain: B29 chain with S26E, S188A
B35: MTSP-1 protease domain I41S/F97del/T98S/F99L/C122S/Q192S (enzyme)
chain: VVGGTDADEGEWPWQVSLHALGQGHSCGASLISPNWLVSAAHCYIDDRGFRYSDPTQWTAFLGLHDQSQRSAPGVQERRLKRIISHPFFNDSLDYDIALLELEKPAEYSSMVRPISLPDASHVFPAGKAIWVTGWGHTQYGGTGALILQKGEIRVINQTTCENLLPQQITPRMMCVGFLSGGVDSCSGDSGGPLSSVEADGRIFQAGVVSWGDGCAQRNKPGVYTRLPLFRDWIKENTGV

The binders below were run against plasma purified human complement protein C3 (human) (UniProt P01024) (assay: cell-based or functional assay).
Chain of plasma purified human complement protein C3 (human) (P01024 23-667, chain 1 of 2): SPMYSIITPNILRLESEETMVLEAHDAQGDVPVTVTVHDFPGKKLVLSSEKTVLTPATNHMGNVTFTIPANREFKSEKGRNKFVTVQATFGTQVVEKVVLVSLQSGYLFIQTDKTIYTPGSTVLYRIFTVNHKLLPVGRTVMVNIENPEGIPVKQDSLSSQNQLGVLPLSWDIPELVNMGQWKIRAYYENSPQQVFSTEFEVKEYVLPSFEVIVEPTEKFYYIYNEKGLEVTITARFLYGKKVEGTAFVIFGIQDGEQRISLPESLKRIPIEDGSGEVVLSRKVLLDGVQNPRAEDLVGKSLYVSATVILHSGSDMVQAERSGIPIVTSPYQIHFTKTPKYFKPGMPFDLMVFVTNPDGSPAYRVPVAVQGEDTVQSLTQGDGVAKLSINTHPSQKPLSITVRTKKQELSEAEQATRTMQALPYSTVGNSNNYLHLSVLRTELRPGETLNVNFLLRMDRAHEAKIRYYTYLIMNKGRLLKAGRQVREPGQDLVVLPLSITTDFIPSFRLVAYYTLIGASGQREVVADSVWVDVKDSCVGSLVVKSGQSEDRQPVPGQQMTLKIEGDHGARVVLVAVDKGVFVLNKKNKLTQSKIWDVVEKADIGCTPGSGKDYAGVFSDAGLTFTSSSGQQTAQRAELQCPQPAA
Chain of plasma purified human complement protein C3 (human) (P01024 672-1663, chain 2 of 2): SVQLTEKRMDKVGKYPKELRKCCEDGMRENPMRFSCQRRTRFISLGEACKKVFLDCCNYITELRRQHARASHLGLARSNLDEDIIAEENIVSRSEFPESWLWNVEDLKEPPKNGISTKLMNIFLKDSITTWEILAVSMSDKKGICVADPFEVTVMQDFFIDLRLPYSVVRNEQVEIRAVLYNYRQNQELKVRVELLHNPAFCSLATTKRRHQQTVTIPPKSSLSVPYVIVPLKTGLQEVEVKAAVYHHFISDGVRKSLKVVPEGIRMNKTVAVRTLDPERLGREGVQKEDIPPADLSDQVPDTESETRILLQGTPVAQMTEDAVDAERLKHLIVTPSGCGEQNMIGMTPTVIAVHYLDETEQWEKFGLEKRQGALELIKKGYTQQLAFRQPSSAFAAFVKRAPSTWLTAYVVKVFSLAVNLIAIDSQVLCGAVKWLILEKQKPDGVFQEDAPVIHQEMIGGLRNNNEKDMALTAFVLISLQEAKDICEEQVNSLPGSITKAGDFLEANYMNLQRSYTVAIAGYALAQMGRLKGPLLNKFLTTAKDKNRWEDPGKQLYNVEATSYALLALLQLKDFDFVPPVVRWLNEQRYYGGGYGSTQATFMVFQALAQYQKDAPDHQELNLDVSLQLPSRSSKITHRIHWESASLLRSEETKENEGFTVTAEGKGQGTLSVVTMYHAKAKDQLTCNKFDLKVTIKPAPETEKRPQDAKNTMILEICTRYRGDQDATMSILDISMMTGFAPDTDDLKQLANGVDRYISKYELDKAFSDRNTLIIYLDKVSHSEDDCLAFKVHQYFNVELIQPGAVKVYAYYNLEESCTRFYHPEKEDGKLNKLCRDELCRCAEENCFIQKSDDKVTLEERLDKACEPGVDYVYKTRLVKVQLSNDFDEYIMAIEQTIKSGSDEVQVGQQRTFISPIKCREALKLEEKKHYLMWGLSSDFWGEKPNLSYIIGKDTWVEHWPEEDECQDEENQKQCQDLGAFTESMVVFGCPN

Binder | EC50 hC3 cleavage [nM] | EC50 of hC3 cleavage [nM]
B1 | 336 | –
B2 | 4.26 | –
B3 | – | 22.2
B4 | – | 8.64
B5 | 13.2 | –
B6 | 9.25 | –
B7 | 9.5 | –
B8 | 17.9 | –
B9 | 10.6 | –
B10 | 44.7 | –
B11 | 16 | –
B12 | 6.75 | –
B13 | 9.89 | –
B14 | 4.49 | –
B15 | 14.8 | –
B16 | 8.9 | –
B17 | 10.8 | –
B18 | 16.7 | –

Binder | EC50 hC3 cleavage [nM] | EC50 of hC3 cleavage [nM]
B19 | 10.2 | –
B20 | 28 | –
B21 | 12 | –
B22 | 5.3 | –
B23 | 12.5 | –
B24 | – | 13.1
B25 | 7.6 | –
B26 | 19.2 | –
B27 | 27.5 | –
B28 | 25.6 | –
B29 | 19.1 | –
B30 | 4.06 | –
B31 | 29.4 | –
B32 | 31 | –
B33 | 6.95 | –
B34 | 47.4 | –
B35 | 23.2 | –
